Source: US20140206608A1 (priority 2012, published 2014)
Where two headings read alike, the source gives them in different places. *1 amine or outer side, *2 acyl side, *3 side chain or, on linkers, in order; H or OH if unused. Where no end group is shown, it is not given here. Side-chain parts run from the residue outwards. [ ]: non-standard residue; d: D form. The star is where a group is joined. γGlu = O=C(O)[C@H](CCC(=O)[*:2])N[*:1]; Palmitoyl = CCCCCCCCCCCCCCCC(=O)*; x70 = not defined here; Aib = CC(C)(N)C(=O)O

Assays:
[1] = biological target: T1, human GLP-1 receptor (hGLP-1 R) (Homo sapiens, UniProt P43220); experiment: cAMP response of HEK-293 cells stably expressing human GLP-1 receptor (HTRF); type: cell-based; settings: cAMP formation, read-out: EC50 hGLP-1 R
T1 construct: expressed in transfected cells; host or cells: HEK-293
T1 sequence (P43220 24-463): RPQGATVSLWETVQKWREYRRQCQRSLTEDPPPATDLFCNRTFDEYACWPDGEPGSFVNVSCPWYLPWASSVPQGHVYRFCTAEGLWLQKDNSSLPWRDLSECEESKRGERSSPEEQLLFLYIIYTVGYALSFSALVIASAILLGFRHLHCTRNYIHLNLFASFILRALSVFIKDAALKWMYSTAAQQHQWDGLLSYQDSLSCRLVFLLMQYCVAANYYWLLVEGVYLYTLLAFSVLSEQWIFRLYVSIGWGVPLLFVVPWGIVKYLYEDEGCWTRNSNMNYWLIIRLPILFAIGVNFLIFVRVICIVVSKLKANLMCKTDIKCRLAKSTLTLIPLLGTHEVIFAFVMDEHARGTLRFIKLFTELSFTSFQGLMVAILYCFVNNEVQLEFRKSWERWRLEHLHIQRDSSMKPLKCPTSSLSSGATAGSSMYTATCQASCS
Description: (§1) cAMP content of cells was determined using a kit from Cisbio Corp. (cat. no. 62AM4PEC) based on HTRF (Homogenous Time Resolved Fluorescence). For preparation, cells were split into T175 culture flasks and grown overnight to near confluency in medium (DMEM/10% FBS). Medium was then removed and cells washed with PBS lacking calcium and magnesium, followed by proteinase treatment with accutase (Sigma-Aldrich cat. no. A6964). Detached cells were washed and resuspended in assay buffer (1×HBSS; 20 mM HEPES, 0.1% BSA, 2 mM IBMX) and cellular density determined. They were then diluted to 400000 cells/ml and 25 μl-aliquots dispensed into the wells of 96-well plates. For measurement, 25 μl of test compound in assay buffer was added to the wells, followed by incubation for 30 minutes at room temperature.

[2] = biological target: T2, human GIP receptor (hGIP R) (Homo sapiens, UniProt P48546); experiment: cAMP response of HEK-293 cells stably expressing human GIP receptor (HTRF); type: cell-based
T2 construct: expressed in transfected cells; host or cells: HEK-293
T2 sequence (P48546 22-466): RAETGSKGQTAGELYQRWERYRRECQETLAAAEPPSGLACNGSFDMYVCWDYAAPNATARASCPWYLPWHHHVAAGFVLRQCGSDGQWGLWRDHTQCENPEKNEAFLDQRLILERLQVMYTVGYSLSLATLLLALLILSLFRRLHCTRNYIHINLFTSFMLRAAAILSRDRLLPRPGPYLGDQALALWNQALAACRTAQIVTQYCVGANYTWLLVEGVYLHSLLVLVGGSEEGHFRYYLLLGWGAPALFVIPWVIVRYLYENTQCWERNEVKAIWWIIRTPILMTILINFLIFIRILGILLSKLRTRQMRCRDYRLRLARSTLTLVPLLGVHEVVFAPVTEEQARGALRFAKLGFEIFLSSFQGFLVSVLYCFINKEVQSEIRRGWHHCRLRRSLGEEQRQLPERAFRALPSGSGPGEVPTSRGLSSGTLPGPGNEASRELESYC
Description: as §1

human GLP-1 receptor = human GLP-1 receptor (human, UniProt P43220 24-463); experiment: cell-based or functional assay
human GIP receptor = biological target: T3, human GIP receptor (human, UniProt P48546 22-466); experiment: cell-based or functional assay
T3 sequence (looked up): T2 sequence (P48546 22-466)

human glucagon receptor = human glucagon receptor (human, UniProt P47871 26-477); experiment: cell-based or functional assay
human glucagon receptor, sequence (P47871 26-477): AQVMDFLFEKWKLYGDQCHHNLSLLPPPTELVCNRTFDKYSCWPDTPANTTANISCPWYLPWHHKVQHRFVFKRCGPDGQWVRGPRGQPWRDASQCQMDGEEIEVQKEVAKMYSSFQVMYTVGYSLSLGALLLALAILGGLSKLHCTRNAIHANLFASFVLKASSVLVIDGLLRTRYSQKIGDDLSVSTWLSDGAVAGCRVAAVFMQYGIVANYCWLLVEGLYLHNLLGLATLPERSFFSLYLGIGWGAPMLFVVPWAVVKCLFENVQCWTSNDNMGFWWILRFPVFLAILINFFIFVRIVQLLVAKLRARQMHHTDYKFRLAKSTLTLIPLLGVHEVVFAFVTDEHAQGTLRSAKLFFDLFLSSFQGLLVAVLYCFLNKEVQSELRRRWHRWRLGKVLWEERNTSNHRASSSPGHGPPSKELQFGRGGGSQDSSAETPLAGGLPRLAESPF

CCCCCCCCCCCCCCCC(=O)N[C@@H](CCC(=O)NCCCC[C@H](NC(=O)[C@H](CCC(N)=O)NC(=O)[C@@H](NC(=O)[C@H](CO)NC(=O)[C@H](CC(C)C)NC(=O)[C@H](CC(=O)O)NC(=O)[C@H](CO)NC(=O)[C@@H](NC(=O)[C@H](Cc1ccccc1)NC(=O)[C@@H](NC(=O)CNC(=O)[C@H](CCC(=O)O)NC(=O)C(C)(C)NC(=O)[C@@H](N)Cc1ccc(O)cc1)[C@@H](C)O)[C@@H](C)O)[C@@H](C)CC)C(=O)N[C@@H](CCC(=O)O)C(=O)N[C@@H](CCCCN)C(=O)N[C@@H](CCC(=O)O)C(=O)N[C@@H](C)C(=O)N[C@H](C(=O)N[C@@H](CCCNC(=N)N)C(=O)N[C@@H](CC(C)C)C(=O)N[C@@H](Cc1ccccc1)C(=O)N[C@H](C(=O)N[C@@H](CCC(=O)O)C(=O)N[C@@H](Cc1c[nH]c2ccccc12)C(=O)N[C@@H](CC(C)C)C(=O)N[C@@H](CCCCN)C(=O)N[C@@H](CC(N)=O)C(=O)NCC(=O)NCC(=O)N1CCC[C@H]1C(=O)N[C@@H](CO)C(=O)N[C@@H](CO)C(=O)NCC(=O)N[C@@H](C)C(=O)N1CCC[C@H]1C(=O)N1CCC[C@H]1C(=O)N1CCC[C@H]1C(=O)N[C@@H](CO)C(N)=O)[C@@H](C)CC)C(C)C)C(=O)O [SEQ ID NO: 8, Y-Aib-E-G-T-F-T-S-D-L-S-I-Q-K(γE-x53)-EKEAVRLFIEWLKNGGPSSGAPPPS-NH2]
EC50 ([1]; Table 7): 0.0201 nM | EC50 ([2]; Table 7, cAMP formation, read-out: EC50 hGIP R): 0.0167 nM

CCCCCCCCCCCCCCCC(=O)N[C@@H](CCC(=O)NCCCC[C@H](NC(=O)[C@H](CCC(N)=O)NC(=O)[C@@H](NC(=O)[C@H](CO)NC(=O)[C@H](CC(C)C)NC(=O)[C@H](CC(=O)O)NC(=O)[C@H](CO)NC(=O)[C@@H](NC(=O)[C@H](Cc1ccccc1)NC(=O)[C@@H](NC(=O)CNC(=O)[C@H](CCC(=O)O)NC(=O)C(C)(C)NC(=O)[C@@H](N)Cc1ccc(O)cc1)[C@@H](C)O)[C@@H](C)O)[C@@H](C)CC)C(=O)N[C@@H](CCC(=O)O)C(=O)N[C@@H](CCC(=O)O)C(=O)N[C@@H](CCC(=O)O)C(=O)N[C@@H](C)C(=O)N[C@H](C(=O)N[C@@H](CCCNC(=N)N)C(=O)N[C@@H](CC(C)C)C(=O)N[C@@H](Cc1ccccc1)C(=O)N[C@H](C(=O)N[C@@H](CCC(=O)O)C(=O)N[C@@H](Cc1c[nH]c2ccccc12)C(=O)N[C@@H](CC(C)C)C(=O)N[C@@H](CCCCN)C(=O)N[C@@H](C)C(=O)NCC(=O)NCC(=O)N1CCC[C@H]1C(=O)N[C@@H](CO)C(=O)N[C@@H](CO)C(=O)NCC(=O)N[C@@H](C)C(=O)N1CCC[C@H]1C(=O)N1CCC[C@H]1C(=O)N1CCC[C@H]1C(=O)N[C@@H](CO)C(N)=O)[C@@H](C)CC)C(C)C)C(=O)O [SEQ ID NO: 11, Y-Aib-E-G-T-F-T-S-D-L-S-I-Q-K(γE-x53)-EEEAVRLFIEWLKAGGPSSGAPPPS-NH2]
EC50 [2]: 0.0057 nM

H-YAEGTFTSDVSIYLEGQAAKEFIAWLVKGR-NH2 [SEQ ID NO: 7, YAEGTFTSDVSIYLEGQAAKEFIAWLVKGR-NH2, reference compound]
EC50 ([1]; Table 2): 0.005 nM | EC50 ([2]; Table 2, cAMP formation, read-out: EC50 hGIP R): 3.66 nM

Tyr(1)Ile(12)-GLP1 (peptide)
EC50 hGLP-1 R [pM] (formed cAMP) (human GLP-1 receptor): 5 pM | EC50 hGIP R [pM] (formed cAMP) (human GIP receptor): 3660 pM

B1: SEQ ID NO: 9 (peptide)
peptide: Y[Aib]EGTFTSDLSIQK([γGlu-x70])EEEAVRLFIEWLK[Aib]GGPSSGAPPPS-NH2
modifications: reading uncertain
EC50 hGLUC R [pM] (formed cAMP) (human glucagon receptor): 164000 pM | EC50 hGLP-1 R [pM] (formed cAMP) (human GLP-1 receptor): 26.7 pM | EC50 hGIP R [pM] (formed cAMP) (human GIP receptor): 14.6 pM

B2: SEQ ID NO: 10 (peptide)
peptide: Y[Aib]EGTFTSDLSIQK([γGlu-x70])EEEAVRLFIEWLKAGGPSSGAPPPS-NH2
modifications: reading uncertain
EC50 hGLUC R [pM] (formed cAMP) (human glucagon receptor): > 1e+06 pM | EC50 hGLP-1 R [pM] (formed cAMP) (human GLP-1 receptor): 12.5 pM | EC50 hGIP R [pM] (formed cAMP) (human GIP receptor): 6.7 pM

B3: SEQ ID NO: 12 (peptide)
peptide: Y[Aib]EGTFTSDLSIQK([γGlu-x70])EEEAVRLFIEWLK[Aib]GGPSSGAPPPS-NH2
modifications: reading uncertain
EC50 hGLUC R [pM] (formed cAMP) (human glucagon receptor): 95900 pM | EC50 hGLP-1 R [pM] (formed cAMP) (human GLP-1 receptor): 11.9 pM | EC50 hGIP R [pM] (formed cAMP) (human GIP receptor): 14.6 pM

B4: SEQ ID NO: 13 (peptide)
peptide: Y[Aib]EGTFTSDLSIQK([γGlu-x70])EKEAVRLFIEWLKAGGPSSGAPPPS-NH2
modifications: reading uncertain
EC50 hGLUC R [pM] (formed cAMP) (human glucagon receptor): 200000 pM | EC50 hGLP-1 R [pM] (formed cAMP) (human GLP-1 receptor): 21.2 pM | EC50 hGIP R [pM] (formed cAMP) (human GIP receptor): 16.8 pM

B5: SEQ ID NO: 11 (peptide)
peptide: Y[Aib]EGTFTSDLSIQK([γGlu-Palmitoyl])EEEAVRLFIEWLKAGGPSSGAPPPS-NH2
modifications: N-terminus assumed
SMILES: CCCCCCCCCCCCCCCC(=O)N[C@@H](CCC(=O)NCCCC[C@H](NC(=O)[C@H](CCC(N)=O)NC(=O)[C@@H](NC(=O)[C@H](CO)NC(=O)[C@H](CC(C)C)NC(=O)[C@H](CC(=O)O)NC(=O)[C@H](CO)NC(=O)[C@@H](NC(=O)[C@H](Cc1ccccc1)NC(=O)[C@@H](NC(=O)CNC(=O)[C@H](CCC(=O)O)NC(=O)C(C)(C)NC(=O)[C@@H](N)Cc1ccc(O)cc1)[C@@H](C)O)[C@@H](C)O)[C@@H](C)CC)C(=O)N[C@@H](CCC(=O)O)C(=O)N[C@@H](CCC(=O)O)C(=O)N[C@@H](CCC(=O)O)C(=O)N[C@@H](C)C(=O)N[C@H](C(=O)N[C@@H](CCCNC(=N)N)C(=O)N[C@@H](CC(C)C)C(=O)N[C@@H](Cc1ccccc1)C(=O)N[C@H](C(=O)N[C@@H](CCC(=O)O)C(=O)N[C@@H](Cc1c[nH]c2ccccc12)C(=O)N[C@@H](CC(C)C)C(=O)N[C@@H](CCCCN)C(=O)N[C@@H](C)C(=O)NCC(=O)NCC(=O)N1CCC[C@H]1C(=O)N[C@@H](CO)C(=O)N[C@@H](CO)C(=O)NCC(=O)N[C@@H](C)C(=O)N1CCC[C@H]1C(=O)N1CCC[C@H]1C(=O)N1CCC[C@H]1C(=O)N[C@@H](CO)C(N)=O)[C@@H](C)CC)C(C)C)C(=O)O
EC50 hGLUC R [pM] (formed cAMP) (human glucagon receptor): 429000 pM | EC50 hGLP-1 R [pM] (formed cAMP) (human GLP-1 receptor): 9.3 pM | EC50 hGIP R [pM] (formed cAMP) (human GIP receptor): 5.7 pM
